The record followed here is publication PMC6523895, “Evidence of Destabilization of the Human Thymidylate Synthase (hTS) Dimeric Structure Induced by the Interface Mutation Q62R” (Biomolecules, 2019).

Data set [1] concerns the molecule itself. The data set can be described thus: SEC; HiLoad 16/600 Superdex 75pg, last step of purification, sample dialysed in buffer A (50 mM HEPES pH 7.5, 30 mM NaCl); profile not shown. (In gel filtration, larger molecules generally elute earlier.)
Data set [2] concerns the molecule itself. The data set can be described thus: crystal structure; X-ray, 2.55 A, space group P2(1)22(1), four homodimers (eight subunits) in the asymmetric unit; crystals from 2.0-2.2 M ammonium sulfate, 100 mM bicine pH 9.0, with 20 mM beta-mercaptoethanol, 20 C.

Positions count from the first letter of the chain named. Names and notes keep the numbering of the source.

B1: His6-tag human thymidylate synthase (HT-hTS), wild type (enzyme, UniProt P04818 1-313, looked up)
chain: MPVAGSELPRRPLPPAAQERDAEPRPPHGELQYLGQIQHILRCGVRKDDRTGTGTLSVFGMQARYSLRDEFPLLTTKRVFWKGVLEELLWFIKGSTNAKELSSKGVKIWDANGSRDFLDSLGFSTREEGDLGPVYGFQWRHFGAEYRDMESDYSGQGVDQLQRVIDTIKTNPDDRRIIMCAWNPRDLPLMALPPCHALCQFYVVNSELSCQLYQRSGDMGLGVPFNIASYALLTYMIAHITGLKPGDFIHTLGDAHIYLNHIEPLKIQLQREPRPFPKLRILRKVEKIDDFKAEDFQIEGYNPHPTIKMEMAV
notes: human thymidylate synthase (TS, EC 2.1.1.45); The non-cleavable N-terminal His6-tag comes from the pQE80L plasmid; also called wild-type hTS; human TS; not shown: His6, N-terminal, kept
As to B1, the stoichiometry N (usually the number of molecules, sites or subunits per partner or assembly) in data set [1] stood at 2.

B2: His6-tag human thymidylate synthase variant Q62R (HT-hTS Q62R) (enzyme, UniProt P04818 1-313, looked up)
chain: B1 chain with Q62R
modifications: Cys195 modified as S,S-(2-hydroxyethyl)thiocysteine (CME195) in the crystal, by reaction with beta-mercaptoethanol
notes: human thymidylate synthase (TS, EC 2.1.1.45) with Gln62 replaced by arginine; plasmid pQE80L-hTS-Q62R made by site-directed mutagenesis of pQE80L-hTS; Non-cleavable N-terminal His6-tag (twelve residues belong to the tag); in the crystal the first twenty-five N-terminal residues and the tag are not traced; also called Q62R variant; not shown: His6, N-terminal, kept
For B2, in data set [2], the binding result was “binds”.
